# Reference: the RNAGym collection of RNA variant scans (doi:10.7554/elife.80360)
# B1: Twister Ribozyme (parent)
# chain: AACACUGCCAAUGCCGGUCCCAAGCCCGGAUAAAAGUGGAGGGGGCGG
# Variants of: B1
# Experiment: self-cleavage, relative activity (ratio to wild type); higher = more cleavage; co-transcriptional
row,Variant,self-cleavage
1,AACACUGCCAAUGCCGGUCCCAAGCCCGGCUAAAAGUGGAGGGGGCGC [A30C G48C],0.933
2,AACACUGCCAAUGCGGGGCCCAAGCCCGGAUAAAAGUGGAGGGGGCGG [C15G U18G],0.0953
3,AACACUGCCAAUCCCCGUCCCAAGCCCGGAUAAAAGUGGAGGGGGCGG [G13C G16C],0.044
4,AACACUGCCAAUCCCUGUCCCAAGCCCGGAUAAAAGUGGAGGGGGCGG [G13C G16U],0.132
5,AACACUGCCAAUGCCGGUCCCAAGCCCGGAUAAAAGUGGCGGGGGCGU [A40C G48U],0.284
6,AACACUGCAAACGCCGGUCCCAAGCCCGGAUAAAAGUGGAGGGGGCGG [C9A U12C],0.795
7,AACACUGCCAAUGACGGUCCCAAGCCCGGAUAUAAGUGGAGGGGGCGG [C14A A33U],0.908
8,AACACUGCCAAUGCCGGUCCUAAGCCCGUAUAAAAGUGGAGGGGGCGG [C21U G29U],0.0831
9,AACACUGCCAAUGCCGGUCGCAAGCCCGGAUAAAAGUGGCGGGGGCGG [C20G A40C],0.109
10,AACACUGUCAAUGCCGGUCCCAAGCUCGGAUAAAAGUGGAGGGGGCGG [C8U C26U],0.061
11,AACACUGCCUAUGCCGGUCCCAAGCCCGGAUUAAAGUGGAGGGGGCGG [A10U A32U],0.842
12,ACCACUGCCAAUGCCGGUCCCAAGCCCGGACAAAAGUGGAGGGGGCGG [A2C U31C],0.0894
13,AACAGUGCCAAUGCCGGUCCCAAGCCCGGAUAAAAGUGGAGGGGGCGG [C5G],0.85
14,AACACUGCCAAUCCCGGUACCAAGCCCGGAUAAAAGUGGAGGGGGCGG [G13C C19A],0.0574
15,AACACUGCCAAUGCCGGUCCCAAGCCCGCAUAAUAGUGGAGGGGGCGG [G29C A34U],0.292
16,AACACUGCCAAUGCCGGUCACAAGCCCGGGUAAAAGUGGAGGGGGCGG [C20A A30G],0.114
17,AACACUGCCAAUGCCGGUCCAAAUCCCGGAUAAAAGUGGAGGGGGCGG [C21A G24U],0.0879
18,AACAAUGCCAAUGCCGGUCCCAAGCACGGAUAAAAGUGGAGGGGGCGG [C5A C26A],0.1
19,AACACUGCCAAUGCCGGUCCCAAGCCCGGAUAAAAGUGGAGGGGACCG [G45A G47C],0.539
20,AACACUGCCAUUACCGGUCCCAAGCCCGGAUAAAAGUGGAGGGGGCGG [A11U G13A],0.95
21,AACACUGCCAAUGCGGGUCCCAAGCCCGGAUAAAUGUGGAGGGGGCGG [C15G A35U],0.0985
22,ACUACUGCCAAUGCCGGUCCCAAGCCCGGAUAAAAGUGGAGGGGGCGG [A2C C3U],0.0628
23,AACAAUGCCAAUGCCGUUCCCAAGCCCGGAUAAAAGUGGAGGGGGCGG [C5A G17U],0.0729
24,AACACUGCCAAUGCCGGUCCUAAGGCCGGAUAAAAGUGGAGGGGGCGG [C21U C25G],0.0992
25,AACACUGCCAAUGCCGGUCCUAAGACCGGAUAAAAGUGGAGGGGGCGG [C21U C25A],0.061
26,AACACUGCCAAUGCCGGUCCCAAGCCCGUAUAAAAGUGGAGGGAGCGG [G29U G44A],0.79
27,AACACUGCCAAUGCCGGUCCCAAGCCCGGAUAAUAAUGGAGGGGGCGG [A34U G36A],0.157

row,Variant,self-cleavage
1,AACACUGCCAAUGCCGGCCCCAAGCCCGGAUAAAAGUUGAGGGGGCGG [U18C G38U],0.261
2,AACACUGCCAAUGCCGGUCCCAACCCCGGAUAAAAGUGAAGGGGGCGG [G24C G39A],0.0888
3,AACCCUGCCAAUGCCGGUCCCAAGCCCGGCUAAAAGUGGAGGGGGCGG [A4C A30C],0.0841
4,AACACUGCCAAUGCCGGUCCCAAGCCCGAAUAAAAGUGGAGGGGUCGG [G29A G45U],0.578
5,GACACUGCCAAUGCCGGUCCAAAGCCCGGAUAAAAGUGGAGGGGGCGG [A1G C21A],0.157
6,AACACUGCCAAUGCCGGUCCCAAUCCCGGAUAAAAGUGGAGAGGGCGG [G24U G42A],0.0906
7,AACACUGCCAAUGCCGGUCCCAAUCCCGGAUAAAAGUGGAGCGGGCGG [G24U G42C],0.0781
8,AACACUGCCAAUGCCGGUCCAAAGCCCGGAUAAAAGUAGAGGGGGCGG [C21A G38A],0.109
9,AACACUGCCAAAUCCGGUCCCAAGCCCGGAUAAAAGUGGAGGGGGCGG [U12A G13U],0.577
10,AACACUGCCAAUGCCGGUCCCAAGCCCGGAUAAAAGUGGGGGGGGCAG [A40G G47A],0.102
11,AACACUGCCAAUGCCGGUCCCAACCCCGGAUAAAAGUGGUGGGGGCGG [G24C A40U],0.0978
12,AACACUGCCAAUGCCGGUCCCAAGCCUGGAUAAAAGUGGAGGGGACGG [C27U G45A],0.819
13,AACACUGCCAAUGCCGGUCCCAAGCCCGGACAAAUGUGGAGGGGGCGG [U31C A35U],1.06
14,AACACUGCCAUUGCCGGUCCCAAGCCCGGAUAAAAGUGGAGGUGGCGG [A11U G43U],0.606
15,AACACUGCUAAUGGCGGUCCCAAGCCCGGAUAAAAGUGGAGGGGGCGG [C9U C14G],0.0927
16,CACACUGCCAAUGCCGGUCCCAAGCCCGGAUAAAAGUGGAGGGGGCGC [A1C G48C],0.168
17,AACACUGCCAAUGCCGGUCCCAAGACCGGAUACAAGUGGAGGGGGCGG [C25A A33C],0.0788
18,AACAUUGCCAAUCCCGGUCCCAAGCCCGGAUAAAAGUGGAGGGGGCGG [C5U G13C],0.13
19,AACACUGCCAAUGCCGGUCCCAAGCCUGUAUAAAAGUGGAGGGGGCGG [C27U G29U],0.441
20,AACACUGCCAAUGCCGGUCCCAAGCCACGAUAAAAGUGGAGGGGGCGG [C27A G28C],0.323
21,AACGCUGCCAAUGCCGGUCCCAAGCUCGGAUAAAAGUGGAGGGGGCGG [A4G C26U],0.252
22,AACACUGCCAUUGCCGGUCCCUAGCCCGGAUAAAAGUGGAGGGGGCGG [A11U A22U],0.908
23,AACACUGCCAAUGCCGGUCCCAAGCCAGGAUAAAAGUGGAUGGGGCGG [C27A G41U],0.0984
24,AACACUGCCAAUGCCGGUCCCAAGCCCGGAUAAAAUUGGAGUGGGCGG [G36U G42U],0.103
25,AACACUGCCCAUGCCGGUCCCAAGCCCGGAUAAAAGUGGAGGGGGCCG [A10C G47C],0.538
26,AACACGGCCAAUGCCGGUCCCAAGCCCGGAUAACAGUGGAGGGGGCGG [U6G A34C],0.539
27,AACACGGCCAAUGCCAGUCCCAAGCCCGGAUAAAAGUGGAGGGGGCGG [U6G G16A],0.226
